# According to the RNAGym collection of RNA variant scans (doi:10.7554/elife.80360):
# B1: Hairpin Ribozyme (parent)
# chain: GUCCUCUUUCACGUGCGCGUGAAAGAGAGAAGUGAACCAGAGAAACACACGUUGUGGUAUAUUACCUGGUA
# Variants of: B1
# Assay: self-cleavage, relative activity (ratio to wild type); higher = more cleavage; co-transcriptional
row,Variant,self-cleavage
1,G21U A36C,0.463
2,G21U A36U,0.661
3,G21U A36G,1.07
4,U20G U60A,0.775
5,U20G U60C,0.815
6,U20G A45U,0.117
7,A22C A45U,0.108
8,A22C A45C,0.128
9,G21C C66G,0.159
10,U20C A35C,0.785
11,U20C A35U,0.82
12,U20C A23U,0.667
13,U20C A23C,0.648
14,G21U U33C,0.192
15,U20C A22G,0.877
16,A22C G42C,0.291
17,U20G A59G,0.167
18,G21A U60A,0.804
19,G21A C50A,0.306
20,A22C A36U,0.581
21,A22C A36C,0.559

row,Variant,self-cleavage
1,U20A U62A,0.239
2,A22C U63C,0.203
3,U20A U52G,0.685
4,A22C A43U,0.15
5,U20G U55A,0.147
6,U20G U55C,0.268
7,U20G U55G,0.293
8,G21U G56C,0.116
9,G21C U60G,0.55
10,A22G C48G,0.136
11,A22G C48A,0.16
12,A22G A28G,0.735
13,U20C A30U,0.0821
14,G21A A41U,1.07
15,G21U A64C,0.149
16,U20A U67C,0.237
17,G21C A64G,0.564
18,G21A A71U,0.611
19,A22G A45U,0.268
20,A22G A45G,0.115
21,U20G G54C,0.321

row,Variant,self-cleavage
1,U20C C48U,0.175
2,U20C C48G,0.104
3,G21U A47U,0.123
4,G21A U33C,0.116
5,G21A U33G,0.104
6,G21C A24G,0.555
7,G21C A24C,0.556
8,U20C C38G,0.154
9,U20C C38U,0.415
10,A22G U62G,0.122
11,A22G U62A,0.189
12,A22C G34A,1.04
13,A22C G34U,1.49
14,A22C G34C,1.22
15,G21U C37U,0.373
16,A22G A47C,0.27
17,G21U A30C,0.232
18,G21U A61U,0.202
19,A22C A39G,0.362
20,A22C A39C,0.539
21,G21U A24U,0.78

row,Variant,self-cleavage
1,U20G A23G,0.98
2,U20G A23U,0.712
3,G21A A35C,0.788
4,A22C A41C,1.22
5,U20G A22U,0.868
6,U20G A22G,0.959
7,G21U A39U,0.293
8,U20G A41C,1.13
9,U20G A41U,1.3
10,G21U C50A,0.194
11,A22G A44G,0.193
12,A22G A44U,0.123
13,A22G C37G,0.291
14,G21A A47C,0.402
15,G21A A47G,0.2
16,U20C U55A,0.407
17,G21C G25A,0.165
18,G21C G25U,0.399
19,A22C G25C,0.182
20,A22C G25U,0.17
21,U20C C65G,0.472
